In PMC5030251, “Metal-Induced Stabilization and Activation of Plasmid Replication Initiator RepB” (Frontiers in Molecular Biosciences, 2016):

Molecular target: the molecule itself
Assay: AUC; sedimentation equilibrium; RepB6 samples heated to temperatures from 25°C up to 45°C (end of the first thermal transition)

B1: RepB, replication initiator protein of the streptococcal plasmid pMV158 (enzyme, UniProt P13921 1-210, looked up)
chain: MAKEKARYFTFLLYPESIPSDWELKLETLGVPMAISPLHDKDKSSIKGQKYKKAHYHVLYIAKNPVTADSVRKKIKLLLGEKSLAMVQVVLNVENMYLYLTHESKDAIAKKKHVYDKADIKLINNFDIDRYVTLDVEEKTELFNVVVSLIRAYTLQNIFDLYDFIDENGETYGLTINLVNEVIAGKTGFMKLLFDGAYQRSKRGTKNEER
notes: RepB, replication initiator (Rep) protein encoded by plasmid pMV158; 210 amino acid polypeptide purified as a hexamer; In assay a2 the protein had been heated beyond its first, irreversible thermal transition (OBD denatured); also called RepB6; full-length hexameric RepB; source: purified as described previously (Ruiz-Masó et al., 2004; Boer et al., 2009)
  stoichiometry N: ~6
